Measurements published in patent US20240067683A1, “USE OF MCM8-CGAS-STING-IFN-I SIGNAL PATHWAY AS DISEASE TARGET” (Guangzhou Women and Children's Medical Center, priority 2020, published 2024).
Positions count from the first letter of the chain named. Numbers in names are those of the source.

Key:
MCM8 [1] = assay: Nuclear export of MCM8 detected by nuclear-cytoplasmic separation; type: cell-based
Experimental: The cells were treated with leptomycin B, a nuclear export inhibitor, to inhibit the protein shuttle out of the nucleus, and the expressions of MCM8 in the cytoplasm (cyto) and the nucleus (nuc) were respectively detected by nuclear-cytoplasmic separation. […] It could be seen that ubiquitination was essential for the nuclear export of MCM8. […] (see Panel f, FIG. 12).

MCM8 [2] = assay: TRIM21-mediated ubiquitination of MCM8; type: cell-based
IFN-I = IFN-I in MCM8-knockdown THP-1 cells stimulated with SeV, with CsA or EtBr (mitochondrion-free p0 cells) treatment; type: cell-based, human; settings: mitochondrion-free p0 THP-1 cells from EtBr treatment
Experimental: (§1) To further verify the mechanism of MCM8-cGAS-STING pathway, the inventors knocked down MCM8 in THP-1 cells, stimulated the cells with SeV, and then treated the cells with MTP complex pore inhibitor cyclosporine A (CsA) ([…]) to inhibit the release of mitochondrial DNA. […] The results were similar when the mitochondria in the cells were removed by EtBr treatment. The process was as follows: THP-1 cells were treated with EtBr to completely remove the mitochondrial DNAs in the cells to construct mitochondrion-free p0 cells, MCM8 was knocked down in normal THP-1 or p0 THP-1, the cells were then stimulated with SeV, the expressions of IFN-α and IFN-β were detected by Q-PCR, and the level of pIRF3 (IRF3 protein activated by phosphorylation) was detected by western blot. […] In Panel D, four columns are taken as a group and represent, from left to right, ctrl siRNA blank control group, MCM8 siRNA control group, ctrl siRNA group of mitochondrion-free cells, and MCM8 siRNA group of mitochondrion-free cells. […] On the contrary, drugs that inhibits or eliminats mtDNA can block the function of MCM8 in regulating IFN-I, and MCM8-knockdown activates cGAS-STING-IFN-I signaling pathway by increasing the amount of cytoplasmic mtDNA.

pIRF3 = pIRF3 level by western blot in normal or p0 THP-1 cells, MCM8 knockdown, SeV stimulation; type: cell-based, human; settings: mitochondrion-free p0 THP-1 cells from EtBr treatment
Experimental: as §1

[3] = system: mitochondrial DNA in cytoplasm; assay: Cytoplasmic DNA source by Q-PCR after nuclear-cytoplasmic separation in THP-1 cells; type: cell-based, human; settings: control THP-1 cells treated with Mdivi, with or without SeV or LPS; similar to MCM8 knockdown
Text: Therefore, in order to explore whether DNA is produced in cytoplasm and the source, the inventors further knocked down MCM8 in THP-1 cells by transfection with MCM8-specific siRNA and stimulated the cells with SeV or poly(dA:dT). The stimulated cells were subjected to nuclear-cytoplasmic separation (Beyotime nuclear protein and cytoplasmic protein extraction kit was used for the nuclear-cytoplasmic separation herein, and the operation followed the instructions, the same below), and the cytoplasmic DNA was extracted for detecting the source of cytoplasmic DNA by qPCR.
Furthermore, the MCM8-knockdown THP-1 cells were stimulated or not stimulated with SeV and LPS, respectively, and treated with or without the mitophagosome formation inhibitor Mdivi, and the cytoplasmic DNA was extracted, and the content of mitochondrial DNA in cytoplasm and the expressions of IFNα and IFNβ were detected by Q-PCR.

IFNα and IFNβ = assay: Expression of IFNα and IFNβ by Q-PCR in THP-1 cells treated with mitophagosome formation inhibitor Mdivi; type: cell-based, human; settings: control THP-1 cells treated with Mdivi, with or without SeV or LPS; similar to MCM8 knockdown
IFN-β = IFN-β mRNA level by Q-PCR in 293T cells overexpressing MCM8 or its mutants, stimulated with poly(dA:dT); type: cell-based; settings: 200 ng overexpressed
Experimental: Besides the previously found A276P and S365N mutations, the inventors found other point mutations related to Kawasaki disease, namely, S280C mutation and S764A mutation, and further conducted cloning and cell experiments, comprising the steps of using 293T cells to separately overexpress 200 ng MCM8, and each of mutants, namely, MCM8 (A276P), MCM8 (S280C), MCM8 (S365N) and MCM8 (S764A); and 24 hours after transfection, stimulating the cells with poly(dA:dT) for 0, 12 and 24 h, collecting RNA, and detecting the mRNA level of IFN-β by Q-PCR. […] Therefore, it can be further considered that the previously found mutations A276P and S365N in MCM8 are both mutation factors that affect the function of MCM8 in regulating IFN-I and lead to Kawasaki disease, while the mutations S280C and S764A are also newly discovered mutations in systemic vasculitis such as Kawasaki disease. These two mutations may be used to diagnose or assist in the diagnosis of Kawasaki disease and systemic vasculitis diseases similar to Kawasaki disease (e.g., systemic lupus erythematosus).

LC3 = assay: Binding of full-length, truncated and point-mutated MCM8 to LC3
Text: Proteins that directly bind to LC3 generally have a LIR motif, the inventors, when predicting with website whether MCM8 has a LIR motif, find that the sequence between the sites MCM8 272-277 is LIR motif. According to the functional domain of MCM8, the inventors constructed truncated mutants in various truncated forms of MCM8 and detected the results of the binding thereof to LC3.
By means of 3D structure prediction, the binding of MCM8 LIR motif to LC3 was simulated (see Panels C and D, FIG. 5).

mitochondrial LC3 = assay: Western blot of mitochondrial LC3 and mitochondrial proteins in Hela cells overexpressing MCM8; type: cell-based; settings: with or without LPS or SeV, vs EV control
Text: Based on the findings in Embodiment 6, MCM8 is related to the amount of cytoplasmic mtDNA and cGAS-STING-IFN-I signaling pathway, while the amount of mtDNA is related to mitophagy, and therefore, the experiment was further carried out as follows. Experiment of MCM8-knockdown inhibiting mitophagy-related proteins: in MCM8-knockdown THP-1 cells, detection indicators related to mitophagy were studied. The cells were stimulated or not stimulated with LPS and SeV, respectively, and the expressions of mitochondrial LC3 and other mitochondrial proteins TOM20, MFN2, PINK1 and COXIV were detected by western blot. It was found from the results that, compared with the control group (Ctrl siRNA), MCM8-knockdown could inhibit the activation of mitochondrial LC3 and increase the amounts of mitochondrial proteins (TOM20, MFN2, PINK1, and COXIV) (see Panel A, FIG. 4). Correspondingly, MCM8 (Flag-MCM8) was overexpressed in Hela cells, the cells were stimulated or not stimulated with LPS and SeV, respectively, and the expressions of mitochondrial LC3 and other mitochondrial proteins (TOM20, MFN2, PINK1, and COXIV) were detected by western blot.

TRIM21 = target: T1, TRIM21 (Homo sapiens, UniProt P19474); assay: Co-immunoprecipitation of Flag-TRIM21 and HA-MCM8 in HeLa cells; type: binding
T1 construct: Flag; expressed in transfected cells; host or cells: HeLa
Text: Further, HeLa cells were transfected with Flag-TRIM21 and HA-MCM8 and subjected to co-immunoprecipitation analysis.

[4] = stimulation with LPS and poly(dA:dT)

T1 sequence (P19474 whole entry): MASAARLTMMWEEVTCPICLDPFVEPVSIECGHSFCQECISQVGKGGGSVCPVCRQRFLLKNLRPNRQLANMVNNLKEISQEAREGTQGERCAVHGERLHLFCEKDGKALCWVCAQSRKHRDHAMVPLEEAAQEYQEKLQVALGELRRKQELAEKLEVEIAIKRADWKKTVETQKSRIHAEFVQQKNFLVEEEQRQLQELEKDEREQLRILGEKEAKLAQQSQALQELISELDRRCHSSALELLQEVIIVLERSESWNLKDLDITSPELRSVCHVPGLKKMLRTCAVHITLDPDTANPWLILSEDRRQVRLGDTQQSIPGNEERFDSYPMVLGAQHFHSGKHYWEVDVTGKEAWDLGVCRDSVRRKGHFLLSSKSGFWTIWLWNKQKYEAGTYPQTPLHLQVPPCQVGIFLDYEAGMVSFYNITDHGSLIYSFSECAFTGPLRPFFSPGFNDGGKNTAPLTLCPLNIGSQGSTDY

CC(=N)NCc1cccc(CN)c1 [1400W]
nuclear export of MCM8 (MCM8 [1]; [4]): inhibited | ubiquitination of MCM8 mediated by TRIM21 (MCM8 [2]): significantly inhibited

CC[n+]1c(-c2ccccc2)c2cc(N)ccc2c2ccc(N)cc21.[Br-] [EtBr]
function of MCM8 in regulating IFN-I (IFN-α and IFN-β expression, Q-PCR) (IFN-I): blocked | expression of pIRF3 protein (pIRF3): significantly inhibited

COc1cc(-n2c(=S)[nH]c3ccccc3c2=O)c(Cl)cc1Cl [Mdivi]
mtDNA aggregation in cytoplasm (Q-PCR) [3]: mtDNA aggregation | expression levels of IFNα and IFNβ (IFNα and IFNβ): increase in the expression levels of IFNα and IFNβ

NS(=O)(=O)OC[C@H]1C[C@@H](Nc2ccnc3cc(-c4cccc(SC(F)(F)F)c4)nn23)[C@H](O)[C@@H]1O [TAK-243]
nuclear export of MCM8 (MCM8 [1]; [4]): obviously inhibited

CCC(=C/[C@H](C)C/C=C/C(C)=C/[C@@H](C)C(=O)[C@@H](C)[C@H](O)[C@@H](C)C/C(C)=C/C(=O)O)/C=C/[C@@H]1OC(=O)C=C[C@@H]1C [leptomycin B]
nuclear export of MCM8 (MCM8 [1]; stimulation with SeV and LPS): significantly inhibited

B1: MCM8: Full-length MCM8 protein (SEQ ID NO: 2), overexpressed in cells (protein, listed as Homo sapiens)
chain: MNGEYRGRGFGRGRFQSWKRGRGGGNFSGKWREREHRPDLSKTTGKRTSEQTPQFLLSTKTPQSMQSTLDRFIPYKGWKLYFSEVYSDSSPLIEKIQAFEKFFTRHIDLYDKDEIERKGSILVDFKELTEGGEVTNLIPDIATELRDAPEKTLACMGLAIHQVLTKDLERHAAELQAQEGLSNDGETMVNVPHIHARVYNYEPLTQLKNVRANYYGKYIALRGTVVRVSNIKPLCTKMAFLCAACGEIQSFPLPDGKYSLPTKCPVPVCRGRSFTALRSSPLTVTMDWQSIKIQELMSDDQREAGRIPRTIECELVHDLVDSCVPGDTVTITGIVKVSNAEEGSRNKNDKCMFLLYIEANSISNSKGQKTKSSEDGCKHGMLMEFSLKDLYAIQEIQAEENLFKLIVNSLCPVIFGHELVKAGLALALFGGSQKYADDKNRIPIRGDPHILVVGDPGLGKSQMLQAACNVAPRGVYVCGNTTTTSGLTVTLSKDSSSGDFALEAGALVLGDQGICGIDEFDKMGNQHQALLEAMEQQSISLAKAGVVCSLPARTSIIAAANPVGGHYNKAKTVSENLKMGSALLSRFDLVFILLDTPNEHHDHLLSEHVIAIRAGKQRTISSATVARMNSQDSNTSVLEVVSEKPLSERLKVVPGETIDPIPHQLLRKYIGYARQYVYPRLSTEAARVLQDFYLELRKQSQRLNSSPITTRQLESLIRLTEARARLELREEATKEDAEDIVEIMKYSMLGTYSDEFGNLDFERSQHGSGMSNRSTAKRFISALNNVAERTYNNIFQFHQLRQIAKELNIQVADFENFIGSLNDQGYLLKKGPKVYQLQTM
modifications: Flag or HA tag
IFN-β level (mRNA, Q-PCR) (IFN-β; poly(dA:dT) 0 h): 0 | IFN-β level (mRNA, Q-PCR) (IFN-β; poly(dA:dT) 12 h): 100 | IFN-β level (mRNA, Q-PCR) (IFN-β; poly(dA:dT) 24 h): 250 | direct binding to LC3 (LC3; mass spectrometry experiments): could directly bind to LC3 | activation of LC3 (mitochondrial LC3): promoted the activation of LC3 more obviously | mitochondrial proteins (TOM20, MFN2, PINK1, COXIV) (mitochondrial LC3): inhibited the increase of mitochondrial proteins | binding to TRIM21 upon stimulation (TRIM21; LPS or poly(dA:dT)): the binding increased | binding to E3 ubiquitin ligase TRIM21 (TRIM21; co-immunoprecipitation): could bind

B2: MCM8 (A276P): MCM8 with point mutation A276P in the LIR motif, found in Kawasaki disease patients (protein)
chain: B1 chain with A276P
binding to LC3 (LC3; MCM8 constructs with or without LIR motif): greatly reduced

B3: MCM8 (S280C): MCM8 with point mutation S280C (protein, listed as Homo sapiens)
chain: B1 chain with S280C
IFN-β level (mRNA, Q-PCR) (IFN-β; poly(dA:dT) 24 h): below 250
